Source: paper doi:10.1101/2020.09.01.276469
pKd: −log10 of the molar value.

Experiments:
Assay in all cases: BLI
[1] = biological target: triple-mutant TPX2 (TM-TPX2) (Xenopus laevis) (UniProt Q6NUF4)
[2] = biological target: TPX2 aa1-178Δ123 (TPX2 1-178 with the KKLK motif mutated) (Xenopus laevis) (UniProt Q6NUF4)
[3] = biological target: double-mutant TPX2 (DM-TPX2) (Xenopus laevis) (UniProt Q6NUF4)
[4] = biological target: TPX2 C-terminus (a.a. 480-716) (Xenopus laevis) (UniProt Q6NUF4)
Chain of TPX2 C-terminus (a.a. 480-716) (Xenopus laevis) (Q6NUF4 480-716): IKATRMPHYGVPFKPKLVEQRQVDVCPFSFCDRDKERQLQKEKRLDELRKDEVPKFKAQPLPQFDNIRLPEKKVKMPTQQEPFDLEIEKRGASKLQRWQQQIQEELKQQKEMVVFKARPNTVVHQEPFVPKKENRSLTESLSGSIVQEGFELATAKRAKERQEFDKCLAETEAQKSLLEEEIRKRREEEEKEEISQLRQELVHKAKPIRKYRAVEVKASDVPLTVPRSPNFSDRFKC

Chain of importin-αΔIBB (importin-α without the importin-β binding domain) (domain or fragment) (P52170 71-522, stated change not applied): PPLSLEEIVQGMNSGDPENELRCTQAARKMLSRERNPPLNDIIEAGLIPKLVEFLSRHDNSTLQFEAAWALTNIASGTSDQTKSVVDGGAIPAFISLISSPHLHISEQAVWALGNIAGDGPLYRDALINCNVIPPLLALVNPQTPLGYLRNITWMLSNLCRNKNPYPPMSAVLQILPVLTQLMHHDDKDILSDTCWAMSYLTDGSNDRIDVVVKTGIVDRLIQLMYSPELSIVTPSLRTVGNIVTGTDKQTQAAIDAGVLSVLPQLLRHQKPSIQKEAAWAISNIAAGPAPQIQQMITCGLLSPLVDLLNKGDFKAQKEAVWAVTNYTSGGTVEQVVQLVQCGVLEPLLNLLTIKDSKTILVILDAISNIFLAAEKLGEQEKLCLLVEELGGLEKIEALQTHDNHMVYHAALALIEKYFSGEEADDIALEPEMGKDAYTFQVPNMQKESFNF
Chain of importin-β (P52297 whole entry): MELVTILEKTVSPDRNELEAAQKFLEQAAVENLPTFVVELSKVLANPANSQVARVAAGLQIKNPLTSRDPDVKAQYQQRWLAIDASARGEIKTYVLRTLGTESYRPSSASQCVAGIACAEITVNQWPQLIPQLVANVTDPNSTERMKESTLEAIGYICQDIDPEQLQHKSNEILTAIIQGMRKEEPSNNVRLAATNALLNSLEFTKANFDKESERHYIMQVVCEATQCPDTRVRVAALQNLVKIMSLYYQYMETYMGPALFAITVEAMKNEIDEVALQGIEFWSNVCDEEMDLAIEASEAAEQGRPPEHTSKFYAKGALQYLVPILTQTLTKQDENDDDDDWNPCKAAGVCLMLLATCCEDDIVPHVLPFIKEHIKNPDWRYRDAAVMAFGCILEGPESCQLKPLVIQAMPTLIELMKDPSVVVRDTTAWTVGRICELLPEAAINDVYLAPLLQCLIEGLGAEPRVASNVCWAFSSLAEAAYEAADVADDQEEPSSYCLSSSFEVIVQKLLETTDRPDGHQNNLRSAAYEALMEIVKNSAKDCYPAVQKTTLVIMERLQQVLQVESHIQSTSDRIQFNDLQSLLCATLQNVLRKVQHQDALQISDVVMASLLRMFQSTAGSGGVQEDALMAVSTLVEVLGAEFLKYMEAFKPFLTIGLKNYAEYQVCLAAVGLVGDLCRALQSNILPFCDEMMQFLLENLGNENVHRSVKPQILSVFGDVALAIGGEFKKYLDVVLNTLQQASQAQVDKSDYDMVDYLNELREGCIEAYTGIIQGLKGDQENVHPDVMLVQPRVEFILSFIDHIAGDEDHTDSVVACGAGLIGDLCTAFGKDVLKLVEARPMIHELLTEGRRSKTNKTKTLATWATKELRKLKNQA

pKd [1] | fold loss of binding against the wild type 1-178 TPX2 construct [2] [fold] | pKd [3] | pKd [4] | Substance
6.39 | 10 | 7.35 | – | importin-αΔIBB (importin-α without the importin-β binding domain) (domain or fragment)
– | – | – | < 5.40 | importin-β (from UniProt P52297 1-876) (natural protein)
